Patent US20150024066A1, “METHODS FOR […] TREATING EXCESS WEIGHT USING OXYNTOMODULIN” (IMPERIAL INNOVATIONS, published 2015)

What was measured:
GLP-1 receptor [1] = biological target: T1, GLP-1 receptor (rat, UniProt P32301); assay: competition of [^125I]GLP-1 binding to rat hypothalamic membranes; reference GLP-1
GLP-1 receptor [2] = biological target: T1, GLP-1 receptor; assay: competition of [^125I]GLP-1 binding to rat hypothalamic membranes, unlabeled peptide varied
Description: Membranes were incubated at room temperature for 90 min. Bound and free radioactivity were separated by centrifugation (2 min, 4° C.). Pelleted membranes were washed with assay buffer (0.5 ml, ice-cold), and the membranes were centrifuged as described above. The supernatant was removed, and the radioactivity in the pellet was counted using a γ-counter. […] All curves were constructed with points in triplicate. IC₅₀ values were calculated using the Prism 3 program (GraphPad Software, Inc., San Diego, Calif.).

affinity relative to GLP-1 (GLP-1 receptor [1]): ~2 orders of magnitude weaker | IC50 (GLP-1 receptor [2]): 8.2 nM
Binder: HSQGTFTSDYSKYLDSRRAQDFVQWLMNTKRNKNNIA [oxyntomodulin (OXM)]
